# Results from patent US20250340881A1, “PHARMACEUTICAL COMPOSITION FOR TREATING CANCER COMPRISING FOXM1 MUTANT OR FOXM1 SHRNA” (Industry-University Cooperation Foundation Hanyang …, priority 2022, published 2025).
# B1: FoxM1 WT: wild-type FoxM1 protein (SEQ ID NO: 1) over-expressed by lentivirus in A549 cells (protein, listed as Homo sapiens)
# chain: MKTSPRRPLILKRRRLPLPVQNAPSETSEEEPKRSPAQQESNQAEASKEVAESNSCKFPAGIKIINHPTMPNTQVVAIPNNANIHSIITALTAKGKESGSSGPNKFILISCGGAPTQPPGLRPQTQTSYDAKRTEVTLETLGPKPAARDVNLPRPPGALCEQKRETCDGEAAGCTINNSLSNIQWLRKMSSDGLGSRSIKQEMEEKENCHLEQRQVKVEEPSRPSASWQNSVSERPPYSYMAMIQFAINSTERKRMTLKDIYTWIEDHFPYFKHIAKPGWKNSIRHNLSLHDMFVRETSANGKVSFWTIHPSANRYLTLDQVFKQQQKRPNPELRRNMTIKTELPLGARRKMKPLLPRVSSYLVPIQFPVNQSLVLQPSVKVPLPLAASLMSSELARHSKRVRIAPKVLLAEEGIAPLSSAGPGKEEKLLFGEGFSPLLPVQTIKEEEIQPGEEMPHLARPIKVESPPLEEWPSPAPSFKEESSHSWEDSSQSPTPRPKKSYSGLRSPTRCVSEMLVIQHRERRERSRSRRKQHLLPPCVDEPELLFSEGPSTSRWAAELPFPADSSDPASQLSYSQEVGGPFKTPIKETLPISSTPSKSVLPRTPESWRLTPPAKVGGLDFSPVQTSQGASDPLPDPLGLMDLSTTPLQSAPPLESPQRLLSSEPLDLISVPFGNSSPSDIDVPKPGSPEPQVSGLAANRSLTEGLVLDTMNDSLSKILLDISFPGLDEDPLGPDNINWSQFIPELQ
# What was measured:
# A549 lung cancer cells [1] = assay: Real-time PCR of EMT, M2-inducing and immune evasion factors in A549 cells treated with Thiostrepton; format: cell-based; conditions: 5 μM, 48 h, Mock and S25E cells
# A549 cells [2] = assay: PD-L1 (CD274) mRNA in A549 cells by real-time PCR; format: cell-based; conditions: A549 cells expressing the protein
# Protocol: To examine the mRNA expression levels of PD-1 and PD-L1, which are involved in solid tumor immune evasion, in THP-1 cells and the cells expressing the FoxM1 phosphorylated point mutant, the expression of PD-1 (CD279) mRNA, an immune evasion factor, was measured by qRT-PCR in THP-1 monocytes co-cultured with A549^S25E cells for 48 h (FIG. 7B). It was observed that the expression of mRNA of PD-L1 (CD274), an immune evasion factor, increased by 2 folds in the A549^S25E cells expressing the phosphorylated point mutant compared to the control group.
# A549 cells [3] = assay: M2d-inducing factor mRNA in A549 cells after co-culture with THP-1 cells; format: cell-based; conditions: co-culture with THP-1 48 hours
# Protocol: (§1) In addition, after co-culturing of human monocyte THP-1 cells and cell groups over-expressing FoxM1 point mutations for 48 hours under the conditions where the previous experiments were performed, the mRNA expression levels of M2d-inducing factors IL4, IL6, IL10, and VEGFA in A549 cells expressing FoxM1 S25E were analyzed. […] The amounts of TGFB1 and VEGFA proteins in the medium cultured for 48 h with A549 cells (4×10^4 cells/ml) expressing FoxM1 variants were measured by ELISA.
# lung tissues = assay: CD68 and CD163 immunostaining and immunoblot of lung tissues of injected mice; format: in vivo; conditions: lung tissues of injected mice
# Protocol: Additionally, the increase of macrophages around the tumor was examined by immunoblot using lung tissue lysates. […] Through the results of this study, it could be observed that the non-phosphorylated point mutant had the effect of inhibiting polarization into tumor-associated macrophages.
# Furthermore, CD68, a marker for a broad range of macrophages, and CD163, a marker for tumor-associated macrophages, were analyzed in lung tissues of mice using immunostaining. It was determined that the expression of both CD68 and CD163 markers was increased in the lung tissues of mice injected with the FoxM1 WT protein over-expressed cells (FIG. 13D). Through the present results, it could be observed that there was an effect of promoting the polarization of M2 tumor-associated macrophages in lung cancer cells expressing the FoxM1 WT protein.
# A549 cells [4] = assay: ELISA of TGFB1 and VEGFA proteins in A549 culture medium; format: cell-based; conditions: medium cultured 48 h
# Protocol: as §1
# THP-1 cells = assay: M1 and M2 marker mRNA in THP-1 cells co-cultured with FoxM1-expressing A549 cells; format: cell-based, human; conditions: co-culture 48 h
# Source text: In the animal tissues, it was confirmed that both PD-L1 protein expression and CD274 mRNA expression were increased in cancer cells expressing FoxM1 (FIG. 5D, 5E). […] From the results described above, we investigated whether FoxM1 phosphorylated point mutant (S25E) affects the polarization of macrophages in the tumor microenvironment. After co-culturing human monocyte THP-1 cells and the cell groups over-expressing FoxM1 point mutants, M1 and M2 markers were examined in THP-1 cells.
# Next, an expression suppression system for suppressing FoxM1 expression was established to observe whether the FoxM1 phosphorylated point mutant (S25E) directly affects polarization to M2 macrophages. First, to inhibit the expression of mRNA of FoxM1, a pLKO-puro.1-hFoxM1 plasmid was produced using a pLKO-puro.1 vector to construct shRNAs targeting nucleotide sequences at 709-729 positions in the human FoxM1 mRNA sequence. The following sequences can be used as target sequences for human FoxM1 shRNA production, and oligonucleotides with the following sequences can be used as primers for shRNA production. The gene accession number for human FoxM1 mRNA in PubMed is NM_001243088.2, and it contains 3507 bp. The following primers were used for shRNA production: 5′-ccgg-[…]-ctcgag-[…]-tttttg-3′ (forward primer) and 5′-aattcaaaaa-AGCAAG AGATGGAGGAAAAGG-ctcgag-[…]-3′ (reverse primer). Then, after purifying and concentrating each lentivirus for expression of the produced FoxM1 shRNA, it was constructed by infecting a lung cancer cell line, A549 cells expressing FoxM1, with the virus. The mRNA expression of M2 markers, CD163, CD206, and VEGFA, was examined after co-culturing lung cancer cells (4×10^4 cells/ml) with suppressed FoxM1 expression and THP-1 cells (1.2×10^5 cells/ml) for 48 h. […] When co-culturing with cancer cells expressing the FoxM1 variant S25E, it was confirmed that the M2 markers CD163, CD206, and VEGFA were all increased by 2 folds or more in THP1 cells compared to the control group (Mock_shCtrl) (FIG. 6D).
# After co-culturing the FoxM1 WT protein over-expressed cancer cells (4×10^4 cells/ml) and THP-1 cells (1.2×10^5 cells/ml) for 48 h, the mRNA expression of M1 markers INOS and IL12B was not altered, while the mRNA expression of all the M2 markers IL10, CD163, CD206, TGFB1, and VEGFA was increased in the FoxM1 WT (FIG. 13A). Among them, CD206, TGFB1, and VEGFA had been known as markers for M2d-tumor-associated macrophages (M2d-TAM) (JAYASINGAM, Sharmilla Devi, et al., Frontiers in Oncology (2020) 9: 1512.).
# A549 lung cancer cells [5] = assay: EMT marker expression (immunoblot, real-time PCR) in A549 cells expressing FoxM1 WT or mutants; format: cell-based; conditions: FoxM1 WT
# Source text: To establish a stabilized cell line expressing WT, phosphorylation, and non-phosphorylated point mutants of FoxM1 in lung cancer cells, A549 cells were first infected with pLVX-Tet3G expressing lentivirus, and the infected cells were selected by treating with G418 for 5 days. The selected A549Tet3G cells were infected with lentiviruses expressing WT and phosphorylated point mutants (S25E, S361E, S715E) and non-phosphorylated point mutants (S25A, S361A, S715A) of FoxM1, and then treated with puromycin for 48 hours to establish a stabilized cell line. The established cells were treated with 2 μg/ml of doxycycline to induce expression of WT, phosphorylation, and non-phosphorylated point mutants of FoxM1, and the mRNA and protein expression levels of each FoxM1 point mutant were determined to confirm whether they were well expressed. As shown in FIG. 4A and FIG. 4B, it was confirmed that the WT and each point mutant form of FoxM1 were well expressed through mRNA and protein expression levels. It was observed that the expression levels of N-cadherin and vimentin were higher, and the expression levels of E-cadherin were lower in lung cancer cells expressing the phosphorylated form of FoxM1, specifically, phosphorylated at the phosphorylation site S25, compared to the cells expressing the non-phosphorylated form of FoxM1. In addition, when it was examined whether the expression of these phosphorylation and non-phosphorylated point mutants of FoxM1 affected cell proliferation, it was observed that it had no significant effect on cell proliferation (FIG. 4C).
# To establish a stabilized cell line expressing FoxM1 WT in A549 lung cancer cells, first, pLVX-Tet3G expressing lentivirus was infected into cells, and the infected cells were selected by treating 500 μg/ml of G418 for 5 days. The selected A549^Tet3G cells were infected with lentiviruses expressing FoxM1 WT or Mock, and the stabilized cell lines were established by treating with 2 μg/ml of puromycin for 48 hours. After inducing the expression of FoxM1 WT by treating the established cells with 2 μg/ml of doxycycline, the protein expression was observed by immunoblot.
Molecule,"expression of IL6, VEGFA and CD274 (PD-L1) (A549 lung cancer cells [1])","expression of mesenchymal markers CDH2, vimentin, SNAI1 and SNAI2 (A549 lung cancer cells [1])","expression of IL6, VEGFA and CD274 (PD-L1) (A549 lung cancer cells [1]; listed as thiostepton)","expression of mesenchymal markers CDH2, vimentin, SNAI1 and SNAI2 (A549 lung cancer cells [1]; listed as thiostepton)",mRNA expression of PD-L1 (CD274) compared to the control group (A549 cells [2]),"mRNA expression levels of M2d-inducing factors IL4, IL6, IL10 and VEGFA in A549 cells (in words) (A549 cells [3])","expression of CD68 and CD163 markers, immunostaining (in words) (lung tissues)",amounts of TGFB1 and VEGFA proteins in medium (in words) (A549 cells [4]),mRNA expression of M1 markers INOS and IL12B in THP-1 cells (THP-1 cells),"mRNA expression of M2 markers IL10, CD163, CD206, TGFB1 and VEGFA in THP-1 cells (in words) (THP-1 cells)","FoxM1 expression, real-time polymerase chain reaction (A549 lung cancer cells [5])","expression of E-cadherin, real-time polymerase chain reaction (reduced by) (A549 lung cancer cells [5])","expression of N-cadherin, real-time polymerase chain reaction (A549 lung cancer cells [5])","expression of vimentin, real-time polymerase chain reaction (A549 lung cancer cells [5])","expression of E-cadherin, immunoblot (decreased by) (A549 lung cancer cells [5]; doxycycline 2 μg/ml)","expression of N-cadherin, immunoblot (A549 lung cancer cells [5]; doxycycline 2 μg/ml)","expression of vimentin, immunoblot (A549 lung cancer cells [5]; doxycycline 2 μg/ml)"
C=C(NC(=O)C(=C)NC(=O)c1csc(C2=N[C@@H]3c4csc(n4)[C@H]4NC(=O)c5csc(n5)[C@H]([C@](C)(O)[C@@H](C)O)NC(=O)[C@H]5CSC(=N5)/C(=C/C)NC(=O)[C@H]([C@@H](C)O)NC(=O)c5csc(n5)[C@]3(CC2)NC(=O)[C@H](C)NC(=O)C(=C)NC(=O)[C@H](C)NC(=O)[C@H]([C@@H](C)CC)N[C@@H]2C=Cc3c([C@H](C)O)cc(nc3[C@H]2O)C(=O)O[C@@H]4C)n1)C(N)=O [Thiostrepton],significantly reduced,significantly reduced,reduced,reduced,–,–,–,–,–,–,–,–,–,–,–,–,–
B1,–,–,–,–,about 2.3 folds,increased,increased,markedly increased,not altered,increased,4.4 folds,0.8 folds,1.5 folds,1.7 folds,0.6 folds,2.2 folds,2.8 folds
